In patent US20220249439A1 (FRED HUTCHINSON CANCER RESEARCH CENTER, published 2022):

Target: T1, eIF4E (mouse, endogenous in Pten^L/L prostate tissue) (mouse, UniProt P63073 2-217)
T1 construct: Endogenous protein in mouse prostate tumor tissue, detected with an antibody (SCBT) in a proximity ligation assay; also called eIF4E translation initiation factor; eukaryotic translation initiation factor 4E
Test: in situ proximity ligation assay on castrate vs intact Pten^L/L mouse prostate tumors; confirmed by m7GTP cap-binding assay
Method: Flash frozen intact and castrate Pten^{L/L} ventral prostates dissected from each animal or from AR+ parental and AR− APIPC tumors were pulverized with mortar and pestle in appropriate volumes of lysis buffer containing 10 mM Tris/HCL pH 7.6, 140 mM KCl, 4 mM MgCl₂, 1 mM DTT, 1 mM EDTA, 1% Nonidet P-40 supplemented with phosphatase and protease inhibitor cocktails (Roche) and lysed for 30 min on ice. Lysates were cleared by centrifugation at 12000 rpm for 25 min at 4° C. Supernatants were collected and assayed for protein concentration using the Protein Assay Dye Reagent (Bio-Rad). 250 μg of protein were incubated rotating with 50 μl of γ-aminophenyl-m7GTP (C10-spacer)-agarose beads (Jena Bioscience) in lysis buffer without Nonidet P-40 at 4° C. overnight. After two washes in lysis buffer containing 0.5% Nonidet P-40 and two washes in PBS, beads were re-suspended in 60 μl of 1×SDS loading buffer and boiled for 5 min. Thirty microliters of boiled lysates were western blotted for eIF4G, eIF4E, and 4EBP1.
To test this hypothesis, proximity ligation assays (PLA) for eIF4E-eIF4G interactions and eIF4E-4EBP1 interactions were optimized (FIG. 2A). […] This was also confirmed by the cap-binding assay (FIG. 11A). […]

T1 sequence (P63073 2-217 limits assumed): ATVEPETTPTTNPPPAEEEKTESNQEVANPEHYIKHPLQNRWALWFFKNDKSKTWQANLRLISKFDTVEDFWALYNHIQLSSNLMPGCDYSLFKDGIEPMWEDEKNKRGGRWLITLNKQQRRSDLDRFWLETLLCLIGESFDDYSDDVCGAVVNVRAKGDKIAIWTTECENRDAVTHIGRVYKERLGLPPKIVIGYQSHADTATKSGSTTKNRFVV

binding result: binds
B1: 4EBP1 (mouse, endogenous in Pten^L/L prostate tissue) (other, UniProt Q60876 2-117, looked up)
chain: SAGSSCSQTPSRAIPTRRVALGDGVQLPPGDYSTTPGGTLFSTTPGGTRIIYDRKFLMECRNSPVAKTPPKDLPAIPGVTSPTSDEPPMQASQSQLPSSPEDKRAGGEESQFEMDI
notes: Endogenous protein
